{"source": "paper PMC5575927", "proteins": {"B1": {"name": "PmC11 (Parabacteroides merdae) (protein)", "chain": "ETPEPRTTRTILVYMMANNSLNSFASKNIESMIEGATSKNLNGGNLIVYYAPAGSPPELLRIKEENGVVKKIHLKDYEKQNSADPDVMRSVIGEVVSQYPADSYGLVLWSHGTAWLPSDYQNKLKAFGQDGNNWMEIDDLAKGLPDDLFDFILFDACYMASVECTYELRNKAEYILASPTETMADGWPYEEMMPQLFATDLQLEKVGETFYNHYLNNTYPYATVSLTKTSELDNLKSVTHDILADKTESDIYSLDPKKMQRLEYLYRSPGMLYDFNDYIKQLATAEQYDRFISCLDKAVVYKAHTPKSYYAAIGNALPIKSYCGLTIFVPQESLPKMLEWYKQRVGWYKAVYE"}}, "key": {"[1]": {"substrate": "CC(=O)N[C@H](C(=O)N[C@@H](CC(C)C)C(=O)N[C@H](C(=O)N[C@@H](CCCCN)C(=O)Nc1ccc2c(C)cc(=O)oc2c1)[C@@H](C)O)C(C)C", "assay": "Fluorogenic AMC release", "type": "biochemical", "conditions": "pH 7.4; 25.0 °C"}, "[2]": {"substrate": "CC(=O)N[C@H](C(=O)N[C@@H](CC(C)C)C(=O)NCC(=O)N[C@@H](CCCCN)C(=O)Nc1ccc2c(C)cc(=O)oc2c1)C(C)C", "assay": "Fluorogenic AMC release", "type": "biochemical", "conditions": "pH 7.4; 25.0 °C"}}, "data": [{"protein": "B1", "values": [{"measurement": "Km", "setting": "[1]", "result": 20.4, "unit": "µM"}, {"measurement": "Km", "setting": "[2]", "result": "~185.8", "unit": "µM"}]}]}
